Results from patent US20250340603A1, “A METHOD FOR MODULATING PLANT ADAPTATION TRAITS” (CRAG (Centre de Recerca en Agrigenòmica), priority 2021, published 2025).
Substitutions are numbered along the chain they refer to.

Legend:
[1] = system: WT (Col-0) and brl3-2 mutant seedlings; test: Bikinin sensitivity assay (hypocotyl elongation); assay type: in vivo, Arabidopsis thaliana; conditions: 6 d, LD
Procedure: Chemicals used include; 1 μM BRZ220 (Gift from T. Nakano, RIKEN, Japan) or 50 μM Bikinin (200980, Sigma-Aldrich) for 6-d in control (long days, 22° C.) or high temperature (long days, 28° C.) conditions. Hypocotyl length were measured using the Image J software (v.1.48v) (https-/imagej.nih.gov/ij/).
For hypocotyl elongation analysis, seedlings were grown in horizontally placed 0.5MS− media plates in controlled growth conditions (Aralab 600; long days 16:8h day/night cycle 60% relative humidity and 50-70 μmol m^−2 s^−1 of cool-white fluorescent light) at 22° C. or 28° C. temperature for 5-7d. Plates were photographed and hypocotyl length were measured using the ImageJ software (v.1.48v) (https:/imagej.nih.gov/ij/). For root growth analysis, seedlings were grown in vertically placed 0.5MS− media plates in controlled growth conditions (Aralab 600; long days 16:8h day/night cycle; 22° C.). MyROOT software (Betegón-Putzé et al., 2019) was used to compare root growth of plants. Lateral roots were manually counted under a stereozoom microscope in 9-d-old seedlings.
Seedlings were grown in horizontally placed 0.5MS− media supplemented with or without 50 μM Bikinin (200980, Sigma-Aldrich) for 6-d in control (long days, 22° C.) or high temperature (long days, 28° C.) conditions. Hypocotyl length were measured using the Image J software (v.1.48v) (https://imagej.nih.gov/ii/).

[2] = molecular target: T1, KIN7 kinase domain, GST- or MBP-tagged, from E. coli
T1 chain: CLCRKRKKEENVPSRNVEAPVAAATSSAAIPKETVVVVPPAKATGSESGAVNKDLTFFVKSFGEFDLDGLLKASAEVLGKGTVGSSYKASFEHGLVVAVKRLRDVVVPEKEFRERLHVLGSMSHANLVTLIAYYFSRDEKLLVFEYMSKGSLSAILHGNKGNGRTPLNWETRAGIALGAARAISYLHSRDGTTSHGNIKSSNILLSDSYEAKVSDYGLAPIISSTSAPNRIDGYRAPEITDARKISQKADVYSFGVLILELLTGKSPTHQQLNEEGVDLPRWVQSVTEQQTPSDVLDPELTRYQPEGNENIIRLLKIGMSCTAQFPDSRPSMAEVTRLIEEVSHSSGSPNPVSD

[3] = molecular target: T2, BRL3T1025A, phospho-dead version of the BRL3 kinase domain
T2 chain: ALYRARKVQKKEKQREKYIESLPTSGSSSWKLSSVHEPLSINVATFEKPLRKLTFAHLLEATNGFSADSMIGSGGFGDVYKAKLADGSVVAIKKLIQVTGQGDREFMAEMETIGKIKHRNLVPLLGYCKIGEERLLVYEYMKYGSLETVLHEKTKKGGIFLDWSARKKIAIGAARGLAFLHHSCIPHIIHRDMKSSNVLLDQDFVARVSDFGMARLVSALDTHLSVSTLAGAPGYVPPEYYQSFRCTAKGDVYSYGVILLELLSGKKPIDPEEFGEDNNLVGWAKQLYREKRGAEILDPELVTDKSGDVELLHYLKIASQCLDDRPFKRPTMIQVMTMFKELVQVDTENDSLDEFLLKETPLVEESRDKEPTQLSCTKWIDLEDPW

[4] = molecular target: T3, BRI1 (BRASSINOSTEROID … 1), BiFC negative control (Arabidopsis, UniProt O22476 24-1196); test: BiFC (split YFP) in Nicotiana benthamiana leaves, confocal microscopy
T3 construct: whole, on cells; not shown: the construct of this control is not described
T3 sequence (looked up): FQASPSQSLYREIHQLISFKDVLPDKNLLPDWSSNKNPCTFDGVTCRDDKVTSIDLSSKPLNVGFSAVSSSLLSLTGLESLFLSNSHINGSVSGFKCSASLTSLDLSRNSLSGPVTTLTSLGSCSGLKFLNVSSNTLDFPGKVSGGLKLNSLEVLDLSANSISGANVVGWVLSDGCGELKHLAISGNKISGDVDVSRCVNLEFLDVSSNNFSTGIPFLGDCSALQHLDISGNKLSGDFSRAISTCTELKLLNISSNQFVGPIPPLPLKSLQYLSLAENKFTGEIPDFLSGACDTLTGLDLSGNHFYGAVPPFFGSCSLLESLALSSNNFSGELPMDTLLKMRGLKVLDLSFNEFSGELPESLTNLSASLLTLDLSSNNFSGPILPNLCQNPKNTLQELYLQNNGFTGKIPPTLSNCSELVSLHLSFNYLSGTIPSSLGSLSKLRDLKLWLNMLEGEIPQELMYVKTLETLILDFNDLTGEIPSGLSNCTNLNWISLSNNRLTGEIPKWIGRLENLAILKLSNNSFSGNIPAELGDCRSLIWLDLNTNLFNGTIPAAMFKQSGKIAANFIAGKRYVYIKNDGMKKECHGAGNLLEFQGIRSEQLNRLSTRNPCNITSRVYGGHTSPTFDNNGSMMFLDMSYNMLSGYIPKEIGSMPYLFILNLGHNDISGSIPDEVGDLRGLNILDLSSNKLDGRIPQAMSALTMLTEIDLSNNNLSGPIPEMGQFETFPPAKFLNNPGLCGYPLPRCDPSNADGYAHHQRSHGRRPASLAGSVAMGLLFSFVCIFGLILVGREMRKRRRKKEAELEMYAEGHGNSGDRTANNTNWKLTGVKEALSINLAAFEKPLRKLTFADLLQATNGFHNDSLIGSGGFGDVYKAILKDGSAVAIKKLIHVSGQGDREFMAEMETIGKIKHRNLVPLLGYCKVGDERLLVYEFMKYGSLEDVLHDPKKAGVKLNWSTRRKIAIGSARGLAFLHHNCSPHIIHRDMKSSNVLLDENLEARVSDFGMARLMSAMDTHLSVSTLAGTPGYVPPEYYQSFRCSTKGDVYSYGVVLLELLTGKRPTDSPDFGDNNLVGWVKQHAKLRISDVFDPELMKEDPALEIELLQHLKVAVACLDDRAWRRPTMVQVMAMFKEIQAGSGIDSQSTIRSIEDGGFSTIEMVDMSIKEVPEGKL

Q: How did the hypocotyl elongation ([1]; 50 μM Bikinin in media, WT and brl3-2 mutant, control (22° C.) and high temperature (28° C.)) turn out when `O=C(O)CCC(=O)Nc1ccc(Br)cn1` [Bikinin] was run?
A: promote hypocotyl elongation

Q: And the “rescue of brl3 conditional phenotypes (hypocotyl elongation) on elevated temperature” value ([1]; 50 μM Bikinin, brl3-2 mutant, 28° C.)?
A: rescued brl3 conditional phenotypes

B1: BRL3 kinase domain, GST- or MBP-tagged, from E. coli (protein)
chain: T2 chain with A232T
Q: Which “incorporation of 32P into KIN7 kinase (in vitro phosphorylation, autoradiography)” value [2] does the source give for B1 here?
A: The image show and autoradiography revealing the incorporation of 32P into KIN7 kinase when incubated with BRL3

B2: BRL3T1025A, phospho-dead version of the BRL3 kinase domain (protein)
chain: T2 chain
Q: For B2, which “incorporation of 32P into KIN7 kinase (in vitro phosphorylation, autoradiography)” value [2] is on record?
A: The phosphorylation in KIN7 kinase domain is lost when incubated with a phospho-dead version of BRL3, the BRL3T1025A

B3: KIN7 kinase domain, GST- or MBP-tagged, from E. coli (protein)
chain: T1 chain
Q: B3 was tested. Which “incorporation of 32P into BRL3 kinase (in vitro phosphorylation, autoradiography)” value [3] did it give?
A: KIN7 is not able to phosphorylate BRL3 domains given that the BRL3 phosphorylation pattern is lost when KIN7 is incubated with the phospho-dead version of BRL3 kinase

B4: BRL3 (BRASSINOSTEROID RECEPTOR LIKE 3), full length, fused to a half of YFP (BiFC construct) (receptor)
chain: RRLLSDDVNDTALLTAFKQTSIKSDPTNFLGNWRYGSGRDPCTWRGVSCSSDGRVIGLDLRNGGLTGTLNLNNLTALSNLRSLYLQGNNFSSGDSSSSSGCSLEVLDLSSNSLTDSSIVDYVFSTCLNLVSVNFSHNKLAGKLKSSPSASNKRITTVDLSNNRFSDEIPETFIADFPNSLKHLDLSGNNVTGDFSRLSFGLCENLTVFSLSQNSISGDRFPVSLSNCKLLETLNLSRNSLIGKIPGDDYWGNFQNLRQLSLAHNLYSGEIPPELSLLCRTLEVLDLSGNSLTGQLPQSFTSCGSLQSLNLGNNKLSGDFLSTVVSKLSRITNLYLPFNNISGSVPISLTNCSNLRVLDLSSNEFTGEVPSGFCSLQSSSVLEKLLIANNYLSGTVPVELGKCKSLKTIDLSFNALTGLIPKEIWTLPKLSDLVMWANNLTGGIPESICVDGGNLETLILNNNLLTGSLPESISKCTNMLWISLSSNLLTGEIPVGIGKLEKLAILQLGNNSLTGNIPSELGNCKNLIWLDLNSNNLTGNLPGELASQAGLVMPGSVSGKQFAFVRNEGGTDCRGAGGLVEFEGIRAERLEHFPMVHSCPKTRIYSGMTMYMFSSNGSMIYLDLSYNAVSGSIPLGYGAMGYLQVLNLGHNLLTGTIPDSFGGLKAIGVLDLSHNDLQGFLPGSLGGLSFLSDLDVSNNNLTGPIPFGGQLTTFPLTRYANNSGLCGVPLPPCSSGSRPTRSHAHPKKQSIATGMSAGIVFSFMCIVMLIMALYRARKVQKKEKQREKYIESLPTSGSSSWKLSSVHEPLSINVATFEKPLRKLTFAHLLEATNGFSADSMIGSGGFGDVYKAKLADGSVVAIKKLIQVTGQGDREFMAEMETIGKIKHRNLVPLLGYCKIGEERLLVYEYMKYGSLETVLHEKTKKGGIFLDWSARKKIAIGAARGLAFLHHSCIPHIIHRDMKSSNVLLDQDFVARVSDFGMARLVSALDTHLSVSTLAGTPGYVPPEYYQSFRCTAKGDVYSYGVILLELLSGKKPIDPEEFGEDNNLVGWAKQLYREKRGAEILDPELVTDKSGDVELLHYLKIASQCLDDRPFKRPTMIQVMTMFKELVQVDTENDSLDEFLLKETPLVEESRDKEPTQLSCTKWIDLEDPW
notes: also called BRL3 receptor; AT3G13380; not shown: half of YFP (YN or YC, both directions tested) from vectors pGTQL1211-YN / pGTQL1221-YC
Q: Does B4 bind [4]?
A: no binding
